Assay [1] addresses PSA in seminal fluid of normal men (human) (UniProt P07288). Briefly: MAA-Sepharose column, 5 ng purified PSA applied, 3.5 ng recovered in all fractions.
Assay [2] has as its target PSA (prostate specific antigen) in serum of prostate cancer patient (human) (UniProt P07288). Briefly: TJA-II-Sepharose column, serum of prostate cancer patient 6; total PSA immunoassay of fractions.
Assay [3] has the same target. As to the kind of experiment: TJA-II-Sepharose column, before sialidase treatment (Table 4 prints 16%).
Assay [4] shares this target. As to the kind of experiment: TJA-II-Sepharose column, serum of prostate cancer patient 7; total PSA immunoassay of fractions.
For assay [5] the target is unchanged. As to the kind of experiment: TJA-II-Sepharose column, serum of prostate cancer patient 3; total PSA immunoassay of fractions.
Assay [6] has as its target PSA (prostate specific antigen) in serum of prostatic hypertrophy patient (human) (UniProt P07288). Briefly: TJA-II-Sepharose column, serum of prostatic hypertrophy patient 1; total PSA immunoassay of fractions.
Assay [7] deals with PSA (prostate specific antigen) in serum of prostate cancer patient (human) (UniProt P07288). Briefly: TJA-II-Sepharose column, serum of prostate cancer patient 2; total PSA immunoassay of fractions.
For assay [8], the target named is PSA (prostate specific antigen) in serum of prostatic hypertrophy patient (human) (UniProt P07288). Briefly: TJA-II-Sepharose column, serum of prostatic hypertrophy patient 9; total PSA immunoassay of fractions.
Assay [9] shares this target. As to the kind of experiment: TJA-II-Sepharose column, serum of prostatic hypertrophy patient 3; total PSA immunoassay of fractions.
Assay [10] has the same target. As to the kind of experiment: TJA-II-Sepharose column, serum of prostatic hypertrophy patient 4; total PSA immunoassay of fractions.
Assay [11] shares this target. Briefly: TJA-II-Sepharose column, serum of prostatic hypertrophy patient 6; total PSA immunoassay of fractions.
The target is the same in assay [12]. As to the kind of experiment: TJA-II-Sepharose column, serum of prostatic hypertrophy patient 2; total PSA immunoassay of fractions.
Assay [13] deals with PSA (prostate specific antigen) in serum of prostate cancer patient (human) (UniProt P07288). As to the kind of experiment: TJA-II-Sepharose column, serum of prostate cancer patient 4; total PSA immunoassay of fractions.
For assay [14] the target is unchanged. As to the kind of experiment: TJA-II-Sepharose column, serum of prostate cancer patient 15; total PSA immunoassay of fractions.
Assay [15] has the same target. As to the kind of experiment: TJA-II-Sepharose column, binding rate of PSA.
Assay [16] addresses PSA in seminal fluid of normal men (human) (UniProt P07288). Briefly: TJA-II-Sepharose column, binding rate of PSA.
Assay [17] concerns the target PSA (prostate specific antigen) in serum of prostatic hypertrophy patient (human) (UniProt P07288). As to the kind of experiment: TJA-II-Sepharose column, binding rate of PSA.
Assay [18] has as its target PSA (prostate specific antigen) in serum of prostate cancer patient (human) (UniProt P07288). As to the kind of experiment: TJA-II-Sepharose column, serum of prostate cancer patient 12; total PSA immunoassay of fractions.
Assay [19] shares this target. Briefly: TJA-II-Sepharose column, serum of prostate cancer patient 10; total PSA immunoassay of fractions.
Assay [20] concerns the target PSA (prostate specific antigen) in serum of prostatic hypertrophy patient (human) (UniProt P07288). As to the kind of experiment: TJA-II-Sepharose column, serum of prostatic hypertrophy patient 7; total PSA immunoassay of fractions.
The target is the same in assay [21]. As to the kind of experiment: TJA-II-Sepharose column, serum of prostatic hypertrophy patient 5; total PSA immunoassay of fractions.
Assay [22] addresses PSA (prostate specific antigen) in serum of prostate cancer patient (human) (UniProt P07288). Briefly: TJA-II-Sepharose column, serum of prostate cancer patient 9; total PSA immunoassay of fractions.
Assay [23] shares this target. As to the kind of experiment: TJA-II-Sepharose column, serum of prostate cancer patient 1; total PSA immunoassay of fractions.
Assay [24] shares this target. Briefly: TJA-II-Sepharose column, serum of prostate cancer patient 11; total PSA immunoassay of fractions.
For assay [25], the target named is Sialidase-treated PSA in serum of prostate cancer patient (human) (UniProt P07288). As to the kind of experiment: TJA-II-Sepharose column, sialidase-treated sample.
For assay [26], the target named is Sialidase-treated PSA in serum of prostatic hypertrophy patient (human) (UniProt P07288). As to the kind of experiment: TJA-II-Sepharose column, sialidase-treated sample.
For assay [27], the target named is Sialidase-treated PSA in seminal fluid of normal men (human) (UniProt P07288). As to the kind of experiment: TJA-II-Sepharose column, sialidase-treated sample.
In assay [28] the target is PSA (prostate specific antigen) in serum of prostatic hypertrophy patient (human) (UniProt P07288). As to the kind of experiment: TJA-II-Sepharose column, 20 sera of prostatic hypertrophy patients.
Assay [29] addresses PSA (prostate specific antigen) in serum of prostate cancer patient (human) (UniProt P07288). Briefly: TJA-II-Sepharose column, 20 sera of prostate cancer patients.
For assay [30], the target named is PSA (prostate specific antigen) in serum of prostatic hypertrophy patient (human) (UniProt P07288). Briefly: TJA-II-Sepharose column, serum of prostatic hypertrophy patient 8; total PSA immunoassay of fractions.
Assay [31] deals with PSA (prostate specific antigen) in serum of prostate cancer patient (human) (UniProt P07288). Briefly: TJA-II-Sepharose column, serum of prostate cancer patient 13; total PSA immunoassay of fractions.
The target is the same in assay [32]. As to the kind of experiment: TJA-II-Sepharose column, serum of prostate cancer patient 5; total PSA immunoassay of fractions.
Assay [33] shares this target. Briefly: TJA-II-Sepharose column, serum of prostate cancer patient 8; total PSA immunoassay of fractions.
Assay [34] shares this target. As to the kind of experiment: TJA-II-Sepharose column, serum of prostate cancer patient 14; total PSA immunoassay of fractions.
Assay [35] shares this target. As to the kind of experiment: UEA-I agarose column, binding rate of PSA.
Assay [36] has the same target. Briefly: WFA-Sepharose column, serum of prostate cancer patient 6; total PSA immunoassay of fractions.
Assay [37] has the same target. Briefly: WFA-Sepharose column, binding rate of PSA.
Assay [38] shares this target. As to the kind of experiment: WFA-Sepharose column, serum of prostate cancer patient 12; total PSA immunoassay of fractions.
Assay [39] shares this target. Briefly: WFA-Sepharose column, serum of prostate cancer patient 15; total PSA immunoassay of fractions.

The values below come from US20120282612A1.

Sequence of Maackia amurensis agglutinin (P0DKL3 30-278): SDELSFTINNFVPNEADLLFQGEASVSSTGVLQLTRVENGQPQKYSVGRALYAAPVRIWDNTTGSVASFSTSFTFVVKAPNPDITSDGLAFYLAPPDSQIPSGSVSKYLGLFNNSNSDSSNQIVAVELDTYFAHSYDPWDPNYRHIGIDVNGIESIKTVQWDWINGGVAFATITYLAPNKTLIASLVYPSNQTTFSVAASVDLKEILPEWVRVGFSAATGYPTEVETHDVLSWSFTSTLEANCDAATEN

In assay [1], Maackia amurensis agglutinin registered a percent considered bound to the column of 30%.
As for Trichosanthes japonica agglutinin-II, the TJA-II binding ratio was 10.8% in assay [2]; 8.2% in assay [4]; 3% in [5]; 1.2% in assay [6]; 5% in assay [7]; under 0.05% in [8]. Moreover, the TJA-II binding ratio was 0.2% in assay [9]; 0.6% in [10]; 1.8% in assay [11]; under 0.05% in [12]; 4.5% in assay [13]; 5% in assay [14]. Further, the TJA-II binding ratio in assay [18] is 8%; in assay [19], 4.6%; in assay [20] it was under 0.05%; in assay [21] it was 1.5%; in assay [22], 14%; in assay [23], 6.4%. The TJA-II binding ratio in [24] amounted to 23%; in assay [30], 1%; in assay [31] it was 5%; in assay [32], 7%; in [33] it was 21%; in assay [34], 4%. Further, the TJA-II-bound PSA in serum sample came to 388 ng/mL in assay [2]; 5.58 ng/mL in assay [4]; 2.4 ng/mL in assay [5]; 0.2 ng/mL in assay [6]; 6.6 ng/mL in assay [7]; 0.02 ng/mL in [9]. The TJA-II-bound PSA in serum sample in assay [10] came to 0.04 ng/mL; in assay [11], 0.17 ng/mL; in assay [13], 9.5 ng/mL; in assay [14], 0.61 ng/mL; in assay [18] it was 4.3 ng/mL; in assay [19] it was 0.46 ng/mL. Besides, the TJA-II-bound PSA in serum sample in assay [21] is 0.12 ng/mL; in assay [22], 0.84 ng/mL; in assay [23], 128 ng/mL; in assay [24], 1.04 ng/mL; in [30], 0.09 ng/mL; in assay [31], 0.24 ng/mL. The figures for the TJA-II-bound PSA in serum sample in assay [32], in assay [33] and in [34] were 6.3 ng/mL, 0.9 ng/mL and 0.85 ng/mL, respectively. Moreover, the binding rate in assay [3] came out at 11%; in assay [15] it was 16%; in assay [16], 2%; in [17], 2%; in assay [25], 59%; in assay [26], 2%. In [27], this substance gave a binding rate of 8.4%. Moreover, the results for the TJA-II binding rate in assay [28] and in assay [29] were under 2% and over 2%, respectively.
Substance “Ulex europaeus agglutinin-1 (from UniProt P22972 1-243)” displayed a binding rate in assay [35] of 5%.
As for Wisteria floribunda agglutinin, the results for the WFA binding ratio in assay [36], in assay [38] and in assay [39] were 9.4%, 7.5% and 4.2%, respectively. Besides, the WFA-bound PSA in serum sample is 328 ng/mL in [36], 3.91 ng/mL in assay [38] and 0.49 ng/mL in assay [39]. Further, the binding rate in assay [37] was found to be 11%.
